Measured values reported in patent US20250326827A1 (SCHOLAR ROCK, published 2025).

Target: latent myostatin (human, UniProt O14793 24-266; O14793 267-375)
Assay: cell-based or functional assay

target engagement, as measured by latent myostatin (serum level after treatment vs baseline; 2 mg/kg and 20 mg/kg IV every 4 weeks): 100 fold
B1: Apitegromab (antibody, human IgG4 S228P, lambda, V domains shown)
VH: QVQLVESGGGVVQPGRSLRLSCAASGFTFSSYGMHWVRQAPGKGLEWVAVISYDGSNKYYADSVKGRFTISRDNSKNTLYLQMNSLRAEDTAVYYCARDLLVRFLEWSHYYGMDVWGQGTTVTVSS
VL: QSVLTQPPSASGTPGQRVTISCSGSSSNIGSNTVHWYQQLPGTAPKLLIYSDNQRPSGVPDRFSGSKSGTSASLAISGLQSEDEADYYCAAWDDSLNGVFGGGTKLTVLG
